Measurements as given in US11932673B2, “Sodium channel inhibitors” (priority 2017, dated 2024).

Legend:
trypsin [1] = test: Phage TRF binding assay of KnotBody phage on immobilised biotinylated trypsin
Experimental: Phage display technology facilitates isolation of binders to any given target from large combinatorial repertoires based on proteins and peptides that can be presented on the surface of filamentous phage^105. In order to isolate functional knottin-antibody fusions from the KnotBody libraries multiple rounds of phage display selections on trypsin (cognate antigen for the EETI-II donor) were carried out. Phage particles were prepared by rescuing KnotBody libraries using trypsin cleavable helper phage^102,106 Two rounds of phage display selections were performed on 10 μg/ml biotinylated trypsin immobilised on Streptavidin (for Round-1) or Neutravidin (for round-2) coated Maxisorp™ immunotubes (Thermo Scientific, Cat No. 444202). In both rounds of selection, phage libraries were pre-incubated with streptavidin coated paramagnetic beads (Thermo Fisher Scientific, Cat. No. 11205D). These beads were removed prior to the addition the phage to the antigen tubes to limit the streptavidin binders entering the selection. Polyclonal phage preparations from round-2 selection outputs were analysed for trypsin binding using a time resolved fluorescence (TRF) binding assay. In this assay, polyclonal phage binding to biotinylated trypsin immobilised on neutravidin (Thermo Fisher Scientific, Cat. No 31000) coated Maxisorp™ plates (Thermo Scientific, Cat. No. 437111) was detected using a mouse anti-M13 antibody (GE Healthcare, Cat. No. 27-9420-01) followed by europium conjugated anti-mouse antibody (Perkin Elmer, Cat. No. AD0124).
In order to identify monoclonal KnotBodies with desired binding characteristics, 94 individual clones derived from 2 rounds of selection using EETI-II CDR1 or CDR2 libraries were picked into 96 well culture plates and phage were prepared from each clone. Methods for screening by monoclonal phage ELISA are known in the art^107. […] Clones with >3× binding signal above background were picked as positive clones and sequenced to identify unique clones. 14 and 42 unique binders were identified from EETI-II CDR1 and EETI-II CDR2 libraries respectively (Table 1). 18 binders from the EETI-II CDR2 library and 3 binders from the EETI-II-CDR1 library were chosen for further characterisation based on their VL and linker sequence diversity. These binders were assigned new clone identification numbers (Table 2). […] In order to confirm that the loss of trypsin binding was not due to reduced expression or display of pIII fusion phage was prepared from 11 (randomly chosen) KnotBodies and their GlyAla variants were analysed on a western blot using an antibody which recognises the product of gene 3 (pIII) using an anti-pIII antibody (MoBiTec GmbH) (FIG. 6).

trypsin [2] = test: TRF binding assay of purified KnotBody Fabs on biotinylated trypsin
[3] = test system: in vitro rat BBB model system; type: in vitro ADME; conditions: Fab format, oligoclonal mixes of 3 Fabs at final 2 μM, controls 1 μM, blood side to brain side, 37° C.
Experimental: In order to assess the ability of these KnotBodies to cross the BBB, a ready to use in vitro rat BBB model system (Pharmacocell, Cat. No. RBT-24H) was used. In this model system rat brain endothelial cells were co-cultured with pericytes and astrocytes to mimic the in vivo BBB anatomy (Nakagawa, S. et al. (2009) Neurochem. Int. 54, 253-263). The in vitro rat BBB kit was cultured according to manufacturer's instructions and transendothelial electrical resistance (TEER) was measured prior to testing of KnotBodies to verify the integrity of the barrier. […] 21 KnotBody Fabs were tested for their ability to cross the in vitro BBB model system. […] The parent KnotBody KB_A12 was used as a negative control. Both positive and negative controls were expressed and purified in the Fab format as described above. […] The concentration of transcytosed Fabs in the lower chamber (referred as brain side) was determined using a sandwich ELISA. In this ELISA, Fabs were captured using an anti-CH1 antibody (provided by Hybridoma Reagent Laboratories) and detected using rabbit anti-human IgG Kappa light chain antibody (Abcam, Cat. No. ab195576) or anti-human IgG Lambda light chain antibody (Abcam, Cat. No. ab124719) followed by europium conjugated anti-rabbit antibody (Perkin Elmer, Cat. No. AD0105). […]

B1: KB_A12: EETI-II VL CDR2 KnotBody, D1A12 VH, VL SEQ ID NO: 105/373; parental/isotype control (antibody, V domains shown)
VH: EVQLVESGGGLVRPGGSLRLSCAASGFTFSSYAMSWVRQAPGKGLEWVSAISGSGGSTYYADSVKGRFTISRDNTKNSLYLQMTSLRADDTAFYYCVKDFGPGYGTGWFDYWGPGTLVTVSS
VL: QSVLTQPPSVSEAPRQRVTITCSGSSSNIGNNAVNWYQQLPGKAPKLLIYAAGRCPRILMRCKQDSDCLAGCVCGPNGFCGANSGVSDRFSAAKSGTSASLAINGLRSEDEADYYCAAWDDSLNGYVFGTGTKLTVLG
- % reduction in binding signal (trypsin [1]; […], monoclonal phage, streptavidin coated plates): 99%
- Tryspin binding signal (FU) (trypsin [1]; monoclonal phage supernatant, biotinylated trypsin on neutravidin coated plates, TRF): 69349 FU
- TRF signal for 0.6 ug/mL Fab (trypsin [2]; KnotBody Fab 0.6 ug/mL, background (no Fab) 431): 102132
- TRF signal for 2.4 ug/mL Fab (trypsin [2]; KnotBody Fab 2.4 ug/mL, background (no Fab) 406): 221989
- TRF signal for 10 ug/mL Fab (trypsin [2]; KnotBody Fab 10 ug/mL, background (no Fab) 420): 252832
- % transcytosis after 6 h [3]: 0.1%
